B1: 1060 (protein, listed as Lunatimonas lonarensis)
chain: MTKTFKIGFLLLACVVFVSCSENPKQADCGLCESVGAKWIQVEKELPTEDSLFYLPNPAPLFRKEFGVESHFDSAKLFITAAGYYKATLNGEAIGKNILDPAWTDYTKRVYYAEYDLSAQIQEGTNCFGVSLGNGFYNPLPMRKWGRRNPREDLNVGKPTFIARLVLYYPNGKTKEISTDESWKYSYGPLIKNSVYLGVLYDKGMEIPGWDRPGFNDTGWKSVQVGKGPGGQLQAAFFPAVQVTEEIRPKSIHEIEKDVYIVDMGVNFTGTYKIRLAGNVGDTVTLRFGERLYEDGTLNPMTTVVGQIKAPGIGGPGSPAIAWQTSSYVVDTEPTWFSPDFTYHTFRYMEITGLQKPPLLTDITGLYFHTNVERESHFTSSNSLLNQIQDATTRTFLSNLISVQSDCAVREKFGYGGDLNATAESFIYNFDMRDIYRKTVYDWVDAINDSIFVDTAPFAGIKYCGISWESAYLITQYYLYLYYDETDLVHELYEDNLAWMDKVARIHPEGMVDSGLSDHESLEPVPVQLTGTAHYLQCAEIMETFASLKGDTKNQQRFAELSEKLRAIIKAEFWDKPVTERINRQTLFSTLLFHRIIPEDELGAARDSLVQAVKNGPSGQFNTGIFGTKYVLETLSESVPIDQVYAIVNSTKFPGWGHMISRGATTIWETWQESDNVFTNCHPMFGTVTEWYYRWLGGIRPDPKQPGFKAFVLAPRTPTGLDSISCSYRSPYGDIVSNWRRESGNSVVYDLIIPVGSVASVSLDMKAAQGLSITKDGKAFQPPVTDASTPGEFKLEGGNYKVVVSG
B2: 1005 (protein, listed as Enterococcus casseliflavus)
chain: MTKKWQATWIEPQQEPTRKEPPFSLADMFSGKKVVQDPPEERLLPPHYLKKIFTVENKSIKQASLTMTAHGIYQAKINGQAVSEAIFAPDYTSYTQYLQYQTYDVTHMLKEKNVWSVTLADGWYAGRVSVSGGSAQFGDRLGILGEIEIYYTDGTYEIIVTDEDFVSSHGKYVYSDLFIGEKQDLRLEKENWETDFDLTGFTKVSKADYGFDHLTPQRGPQVKRQEKLAAKSIWWEKDAVIVDFGQVIAGRVQLQIPLADGQEITIEHSEVLDREGHFFNNIVGRNKDQKDVFIGNGREACLEPDFTFHGFRYIKIDGLDVLPDKQSVWAYAIYSDMKATGSFTTSNQKINQLIENIQWSQKGNMLSIPTDCPQRERVGWTGDIQVFGPTATFFMDVYDFLGRWLDNVRLEQQADGQIVDYTPAPRDYFEGESLTGSLSSAGWGDAIVLLPWTLYQRYGKLEILVENYQAMKRWLSFSRKSAAGDKTDDKQYLWDTKFHFGDWMFPSFMIGEDAKGPMETAFVTKDLFGTAFLAHSSQLFAQISQLLDEEEENWSDFSNKVKAAFQKYYWRDDHLTADFQGSYVIALAFDLLDETASKAAAARLTELIIANNYCLDTGFLSIPYLLDVLCDYGYQELALKLLLQEECPSWLYEVNHGATTIWESWASIQPDGTVCDFSFNHYAFGCVGDWLVRRLAGLQVTEPGFTFFTISPLEQTAISSYHLNYTTAYGDIEIERSNDQFHLSVPQNTKAIFQYGETSKVLTSGKHHLTIKGEKIYE
B3: 1070 (protein, listed as Thermobaculum terrenum)
chain: MRKIIAQDPFTRNDPGIPWDQRGQWPASWVAARRLPSPPYVVAYRLAFVLPQAATATLHVTADERYELFLDSERVGRGSERGDADHWFYETYELELPAGPHTLVARVWSLGPLAPYAQLSVRHGFLLAAEPPLTEALSTGIAPWEAKRLEGYSWVNPSPAWGTGGNIALSAAQFPWGVERGEGDGWEPVEVVERAVGRLMALEAPPQHLLRPATLPAMLEVPIRVGRVRHVSAPSSEEVSSLPIRAEQALDEPEWQAMLEGRSSVTVPPHTTRRVIIDLEDYYCAYPELVTSGGEGGAVRLHWAESLYEDGRGRHKGDRDAIEGKYFRGVGDVFLPDGGDSRRFDTLWWQAGRYLELLVRTADSPLTVASLRLRETRYPLEMESAIATGDPDLDATIPLMVRAMQMCSHETYMDCPYYEQLMYAGDTRLEALVTYVMTRDDRLPRKALRMFDASRLASGLTQARYPSRVRQIIAPFALWWVAMVCDYAYWRPGTEYVRELMPGVRATMEAFERWRGSDGLLESPEGWNVTDWVPEWPAGIPPEGEWGRSGLLNWHLALVTRMVADLERALGNPQMAEHFGARAREIADAALRAFWVPSRGLMADDTACQRFSEHTQCLAILSGLLPPAIEEQVGRSLLEARDIARTTIYFSHYLFEACRKLGRVDVLLARLGLWRELVDKGLRTTIEAPEPTRSDCHAWGAHPLYHLFATFLGIRPAGLGFSAVEIAPQPAALRRLEGRLVHPRGDVWVAMEVDEEQIRARVRLPEAVPGVFCWGSRRVPLRPGEETDVVLPRAQG
B4: 994 (protein, listed as Catenulispora acidiphila)
chain: MLIRRRFATALALILAFAAVTPVASAAPSPSLSLSASSAGTEVSVSALQTDATTNPLGIDDPHPSLSWKLASQINGEYQSAYRIVVAGSQSDASAGVGSVWDSGEVASGNSVGIAYGGPALASEKTYYWAVQIWDEHGTASGWSAPAQWEMGLLNPGDWQGAQWISPTSASAASPLLRKDFTLAKPVARARAYVFGLGFYELHLNGGKVGDRVLEPASTPYAQRDLYAAYDVTGTVKQGGNAVGLWLGNGYDANFSQYGFRWLGPKQAIVLIDVTFSDGTHQAVTSDGSWTWSPSPITADGIYNGESYDARMVQPGWDAAGFSASSLQPVRTVAAPGGSLVADAMPPIRVTQTLNAVKLTSPSPGVYVYDFGQNVSGWEVLRTQGAAGSTVKMQTAEDLLANGTIDTTTNRNALSTDSYTLAGTGSTETYEPRFTYHGFRYVEVTGDPQTPVVSSLQARVVHADLASTSTFSSSDATLNQIWQNNQRTMLNNQMSTPTDNPVRDERTPPGMDVQAYHDASTAEFGMDTYYANYLRDMPPGTALPSDGGNAQQPDMGGDQVTLAWTLYQQYGDIATLAAMYPLMKKFVDTNATNVPGHIWSTGFGDWCPPDHSSNANGGMGNPSAGACTSEVPIVNTALSYLQASDVAKAATALGQAGDAAHYTQLAGDIANAFNAAFLNSDHASYGDGRETTSILPLAFGMVPAADVPAVGARLVDTVVRGNGGHLDTGIFGTRYLMDALAGIGRTDLAMTVLDQGTYPGYGFEIGKGATTDWEEWTYASSMESHDHAMFAGINASFASRLAGIEPTGPGYSTVSIAPQIPAGLQSVAASVSTVRGTVASSWSVSGGKVTMDVTVPVGATASVRVPSFGQGSVTTVSPAGAGAVQVSAGGTSSTYTVGSGSWEFTGSLVPASSTVLPGTWTQCAVETGNCSVAGTETVAFGAQGKYDYATVSGTVACSNTVFGDPDSGVSKACYAEPAPATTPGAWQQCAAETATCSFAGTETVAFGAQGKYTYATLTGGTPCTTTIFGDPAYGIPKSCFIEAPPPAATTWIPCAAETATCTLTASRDVAFGAHGDYAYRTANAPTTCTNAVFGDPAPGAVKACYLQ
B5: 1022 (protein)
chain: MRKSRSLGLGLVKYILIVVALVGCIQTSPTMDESAINHQAQTIYLRGGFNGWSTATAFDRTEQAGIYVAKTKITMGNHGFKLAPADWSFAWVVSAHENQLVELNKSYRLNTAGGEEDSLFIETRGLYQFTLDITQANQPKLLVKLLSADSAKTPPPHYGEMTSLEFNRFNGEKVEAVFSAKATNNGLREYVHSTTQSLRDPVPSYSRYQEDIAHPRVRSGNIAFDALFALAVDEMKLNSVEQIKDGNYNNGQAIDCSCFETGEKWNYVWTRDLSYAAHLSLAQFDAQRVENSLLFKVSNLRASAPISPFLAGNAPYTQIIQDTGSGGSWPVSTDRMTWAFGATALLANLAEPQRSQFARKAFTALVNTIENDRLVAFDSHLGLYLGEQSFLDWREQSYASWIVDDLSSMSTAISLSTNAGHYQALVLAADLAGQLGDVPAAKKYKGWASALKNAINQHLWLEEKGLYSSLTSGHYHKVALEKFDWLGQSLAIVTGIASDEQARAILSSYPHGPMGAAVIFPQQPNIPVYHNRAIWPFVTAYGLNAAVKGKNVAVTQAALDTLTRAAALNLSNMENLEWLSSEPILLDKTHPQLSGPVINSKRQLWSVAAYLNLVSNTIFGAQPSQQGIEFRPFIPKSFKDQWFKHSQVINLINYQWRGKQFDLQLKFAPSNKKFGAYVVNRVKVNGLAHSGVLVEQALKQHNLIEIELVLDNTVDNNINLVDSEPLAFDPLVYAPLEPKLSVVAKANDYVIQIEDKGNANLTSAAIEYEIYRDGNLLTRVPAGAGVSQWLDKGQAQQAHCYAVAARFVKSQNQSHLSEVVCMGERMQIPVADQRIQSNKPKKILGEQLIFSQWGEADDTLQVHFSIDQPGKYAIQFNYHNPANAINLGISNGVKWLEVVNSSNQQSVKQAAVQFPHTRVDKTQFGDNLSTPVEIELAAGDYKLHLHDFYNMSYLQSNKTYTAAGGMKGISNKFDIYAVTFVLLPLK
modifications: Catenovulum agarivorans
B6: 1049 (protein, listed as Chitinophaga pinensis)
chain: MKQCMGIWLLFLSLQTWGQQLQVVHLRTDNKTNPLGCQLSPRLSWQLSASYNNCVQQAYQLQFSDDSTTLNSKKHTGKHVESADPFLTLPAAFAGITLLPAHTYYWRVQVWDKAGRPSGWSEVASFINALNGPADWKGAKWIGYEDVVDSMRVVPGVHNGTDKFYQKHKARQRTIVPLFRKAFSVQGKVKSALLYISGLGQYEASLNGVRLGDNFLAPGWTHYDETALYNTYDLTNVLQAGENALGVIVGNGFFNVNKERYRKLSVVYGMPRMICRLLITYENGKTTNIVSGTDWRTSASPITFTSIYGGEDYDAGKEQSGWDQPGFNDTEWKPAIVVKATEKRLLPEEDYPVKVMEVLPVRRITQPQPAVYMYDFGQNASGIIGLKIKGKKGQTVKLIPAELTNDKQLANQKATGSPYYFSYTLKGDGIETWQPRFSYYGFRYVQVEGAAPDTAVHTGDVPEIISLELLHTRNAAPVNGTFSCSNDLFNRIHTLILWAIKSNMQSVLTDCPHREKLSWLEQDYLMGNAIQYSYDIDLLYRKLIRDMKEAQTGEGLVPDIAPEFVFFDDHGFGFRDSPEWGSAGVIVPWLHYRWYGDKTVISDAYPMVKKYVAYLGAKAQHNILSYGLGDWFDNGPQRPGVAQLTPKGVTATAIYYYDLVLAGNMADLLGKTAEAKAFRVQADKVKATFNGEYFHTGTKVYSTGSQTAMAMPLCVGLVEEQYRQAVFSNMVDSIRQQRNQLTAGDIGFHFLVQALQEGGASDLLYEMNNRSDVPGYGFQLAKGATTLTESWAALEQVSNNHLMLGHLLEWFYTGLGGITQQAGSIGYKQLQICPEVVGDITWVKTSYNTPYGTVRSEWEKKDGGMLFRISIPPNSNAIVKLPAKREGRITADGKPLNNQDLSFEKERVVMYLGSGDYEFSTFK

Experiment: Experiment 6-1: screening of rhamnosidases for derhamnosylation of saponins in treated bark extract (2%), QS-17 2296 to QS-18 2150 (PAR %)
Assay type: biochemical, Quillaja saponaria
Conditions: TBE 2%, pH 7.5, 30 degC, 18 h; TIC peak area ratio percent of rhamnosylated starting saponin to derhamnosylated product, LCMS/MS; negative controls 4.876, 5.225

Row | Molecule | QS-17 (PAR %) [%]
1 | B1 | 5.159
2 | B2 | 5.166
3 | B3 | 5.168
4 | B4 | 5.177
5 | B5 | 5.190
6 | B6 | 5.211

Experiment: Experiment 6-1: screening of rhamnosidases for derhamnosylation of saponins in treated bark extract (2%), desglucosyl-QS-17 2134 to QS-21 1988 (PAR %)
Assay type: biochemical, Quillaja saponaria
Conditions: TBE 2%, pH 7.5, 30 degC, 18 h; TIC peak area ratio percent, LCMS/MS; negative controls 2.719, 2.158

Row | Molecule | Peak75 (PAR %) [%]
7 | B1 | 2.382
8 | B2 | 2.767
9 | B3 | 2.275
10 | B4 | 2.147
11 | B5 | 2.368
12 | B6 | 2.417

Experiment: Experiment 6-1: screening of rhamnosidases for derhamnosylation of saponins in treated bark extract (2%), QS-17 2310 to QS-18 2164 (PAR %)
Assay type: biochemical, Quillaja saponaria
Conditions: TBE 2%, pH 7.5, 30 degC, 18 h; TIC peak area ratio percent, LCMS/MS; negative controls 3.061, 2.429

Row | Molecule | Peak57 (PAR %) [%]
13 | B1 | 2.888
14 | B2 | 2.799
15 | B3 | 3.311
16 | B4 | 3.300
17 | B5 | 2.882
18 | B6 | 2.271

Experiment: Experiment 6-1: specificity of rhamnosidases towards other rhamnose residues (C3 saccharide rhamnose, C28 saccharide rhamnose)
Assay type: biochemical, Quillaja saponaria
Conditions: TBE 2%, pH 7.5, 30 degC, 18 h; LCMS/MS; negative controls 0.18, 0.17

Row | Molecule | ratio PP/QS-21
19 | B1 | 0.15
20 | B2 | 0.17
21 | B3 | 0.18
22 | B4 | 0.16
23 | B5 | 0.15
24 | B6 | 0.18

— patent US20240026407A1, “MODIFICATION OF SAPONINS” (GLAXOSMITHKLINE BIOLOGICALS SA, priority 2020, published 2024)
